The target of assay [1] is Rhinovirus C15 (RV-C15) virus particles (rhinovirus C15). The experiment in a line: ELISA.
The target is the same in assay [2].
Assay [3] has the same target. The experiment in a line: ELISA; RV-C15 coated on the plate; native SP-A or recombinant SP-A variants at a single concentration of 10 µg/mL, with 5 mM CaCl2; A490 nm.

In the case of “Native surfactant protein A (SP-A) (from UniProt Q8IWL2 21-248; Q8IWL1 21-248) (complex)”, the A490nm at 10 µg/mL in assay [1] came out at 2.01 A490nm.
In turn, “Recombinant SP-A2 [A91, K223] (from UniProt Q8IWL1 21-248) (natural protein)” returned an RV-C15-GFP viral copy numbers in NECs at 48 h with rSP-A2 [A91, K223] at 400 µg/mL, percent of RV-C15-GFP infection control (% of RV-C15-GFP infection control) in assay [2] of 40.2. In assay [3], the A490nm at 10 µg/mL was 1.19 A490nm.
In turn, “Recombinant SP-A2 [A91, Q223] (from UniProt Q8IWL1 21-248) (natural protein)” showed an RV-C15-GFP viral copy numbers in NECs at 48 h with rSP-A2 [A91, Q223] at 400 µg/mL, percent of RV-C15-GFP infection control (% of RV-C15-GFP infection control) in assay [2] of 54.8. Besides, in assay [3], the A490nm at 10 µg/mL came to 0.19 A490nm.
“Recombinant SP-A2 [P91, K223] (from UniProt Q8IWL1 21-248) (natural protein)”: the A490nm at 10 µg/mL in assay [3] was 1.67 A490nm.
As to “Recombinant SP-A2 [P91, Q223] (from UniProt Q8IWL1 21-248) (natural protein)”, the A490nm at 10 µg/mL in assay [1] stood at 1.61 A490nm.

The record behind these values is paper PMC11598966.
